Experimental data: publication PMC12663309

Molecular target: NEK7-mut (NEK7 with deletion of the binding sites) (UniProt Q8TDX7)
Assay: SPR; Biacore T200; NEK7 or NEK7-mut immobilised by amine coupling; SDHB flowed at different concentrations; 1:1 Langmuir binding model

Sequence of NEK7-mut (NEK7 with deletion of the binding sites) (Q8TDX7 whole entry, stated change not applied): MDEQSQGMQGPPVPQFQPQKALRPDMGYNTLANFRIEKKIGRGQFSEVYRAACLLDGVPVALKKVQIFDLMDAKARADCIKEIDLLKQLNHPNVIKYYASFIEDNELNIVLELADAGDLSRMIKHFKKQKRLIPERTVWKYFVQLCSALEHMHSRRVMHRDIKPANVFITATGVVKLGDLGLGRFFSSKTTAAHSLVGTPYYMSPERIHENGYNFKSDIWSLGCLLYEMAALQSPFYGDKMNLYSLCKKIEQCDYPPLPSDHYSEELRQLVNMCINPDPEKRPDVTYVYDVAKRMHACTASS

Kd: 4.75 µM
B1: human SDHB recombinant protein (Ag29868, Proteintech) (natural protein)
chain: AQTAAATAPRIKKFAIYRWDPDKAGDKPHMQTYEVDLNKCGPMVLDALIKIKNEVDSTLTFRRSCREGICGSCAMNINGGNTLACTRRIDTNLNKVSKIYPLPHMYVIKDLVPDLSNFYAQYKSIEPYLKKKDESQEGKQQYLQSIEEREKLDGLYECILCACCSTSCPSYWWNGDKYLGPAVLMQAYRWMIDSRDDFTEERLAKLQDPFSLYRCHTIMNCTRTCPKGLNPGKAIAEIKKMMATYKEKKASV
